Measurements published in patent publication US20050266242A1.

Target: biotinylated NM^K184C seed (Saccharomyces cerevisiae) (UniProt P05453)
Experiment: capture of biotinylated seed (50% w/w) on Streptavidin-coated Dynabeads, SDS wash, scintillation counting

Sequence of biotinylated NM^K184C seed (Saccharomyces cerevisiae) (P05453 1-253 K184C): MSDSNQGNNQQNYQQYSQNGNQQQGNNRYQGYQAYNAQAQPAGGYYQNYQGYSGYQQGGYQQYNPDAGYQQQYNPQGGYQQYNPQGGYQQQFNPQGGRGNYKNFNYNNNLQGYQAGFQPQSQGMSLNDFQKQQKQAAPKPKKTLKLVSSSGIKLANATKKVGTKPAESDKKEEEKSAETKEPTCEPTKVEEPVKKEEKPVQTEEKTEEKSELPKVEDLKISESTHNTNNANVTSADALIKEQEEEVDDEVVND

Substance “NM^T158C-iodo[1-14C]acetamide (from UniProt P05453 1-253)” has a fraction of seed-bound NM soluble in SDS at early time points of 50%.
